Data on 13 molecules can be found in patent publication US20230056252A1 (Gilead, published 2023).

Test [1] has as its target T1, CD3 expressed on cell-surface of primary human T cells (human, UniProt P07766 23-207; P04234 22-171).
T1 construct: also called cell-surface CD3; human CD3
As to the kind of experiment: flow cytometry competition vs murine SP34-AF488 on human T cells, n = 2. (In flow cytometry, cells or beads pass a laser one at a time.)
Experimental: (§1) Binding of humanized SP34 Fab variants to CD3 expressed on cell-surface of primary human T cells was evaluated in a flow cytometry-based competition assay.
(§2) A second round of huSP34 Fab variants were characterized using the same flow cytometry-based competition assay as described above.

For test [2], the target named is T1, CD3 expressed on cell-surface of …. The experiment in a line: flow cytometry competition vs murine SP34-AF488 on human T cells, n = 1.
Experimental: as §1, §2
Test [3] shares this target. As to the kind of experiment: flow cytometry competition vs murine SP34-AF488 on human T cells, average.
Experimental: as §1, §2

A word on the IC50: it is the midpoint of a concentration-inhibition curve. Low readings indicate greater potency in that assay, high ones weaker potency in that assay.

T1 sequence (P07766 23-207 limits assumed, chain 1 of 2): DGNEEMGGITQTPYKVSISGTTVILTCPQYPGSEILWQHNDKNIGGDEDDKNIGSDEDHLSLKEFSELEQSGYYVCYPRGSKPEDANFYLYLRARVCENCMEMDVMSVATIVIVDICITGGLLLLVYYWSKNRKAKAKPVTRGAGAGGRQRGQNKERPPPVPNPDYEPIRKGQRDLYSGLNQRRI
T1 sequence (P04234 22-171 limits assumed, chain 2 of 2): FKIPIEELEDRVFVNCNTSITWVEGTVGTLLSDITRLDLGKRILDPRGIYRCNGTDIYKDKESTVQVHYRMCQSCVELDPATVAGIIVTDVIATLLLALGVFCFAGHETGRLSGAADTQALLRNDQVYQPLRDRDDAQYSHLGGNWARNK

B1: huSP34.3.7 Fab-HF (Fab, V domains shown)
VH: EVQLVESGGGLVQPGGSLRLSCAASGFTFNTYAMNWVRQAPGKGLEWVGRIRSKYNNYATYYADSVKGRFTISRDDSKNSLYLQMNSLRTEDTAVYYCVRHGNFGHSYVSWFAYWGQGTLVTVSS
VL: QAVVTQEPSLTVSPGGTVTLTCRSSTGAVTTGHYANWVQQKPGQAPRGLIGGTNKRAPGVPARFSGSLLGGKAALTISGAQPEDEAEYYCALWYSNLWVFGGGTKLTVL
For the molecule B1, the IC50 was found to be 0.15 µg/mL in test [1], 0.3 µg/mL in test [2] and 0.23 µg/mL in test [3].

B2: huSP34.12.8 Fab-HF (Fab, V domains shown)
VH: EVQLVESGGGLVQPGGSLRLSCAASGFTFSTYAMNWVRQAPGKGLEWVARIRSKYNNYATYYAASVKGRFTISRDDSKNSLYLQMNSLRTEDTAVYYCVRHGNFGHSYVSWFAYWGQGTLVTVSS
VL: QAVVTQEPSLTVSPGGTVTLTCGSSTGAVTTGHYANWVQQKPGQAPRGLIGGTNKRAPGVPARFSGSLLGGKAALTISGAQPEDEAEYYCALWYSNRWVFGGGTKLTVL
Regarding B2, the IC50 was found to be 0.29 µg/mL in test [1], 0.57 µg/mL in test [2] and 0.43 µg/mL in test [3].

B3: huSP34.11.7 Fab-HF (Fab, V domains shown)
VH: EVQLVESGGGLVQPGGSLRLSCAASGFTFSTYAMNWVRQAPGKGLEWVGRIRSKYNNYATYYAASVKGRFTISRDDSKNSLYLQMNSLRTEDTAVYYCVRHGNFGHSYVSWFAYWGQGTLVTVSS
VL: QAVVTQEPSLTVSPGGTVTLTCRSSTGAVTTGHYANWVQQKPGQAPRGLIGGTNKRAPGVPARFSGSLLGGKAALTISGAQPEDEAEYYCALWYSNLWVFGGGTKLTVL
B3: the figures for the IC50 in test [1], in test [2] and in test [3] were 0.18 µg/mL, 0.45 µg/mL and 0.32 µg/mL, respectively.

B4: huSP34.13.7 Fab-HF (Fab, V domains shown)
VH: EVQLVESGGGLVQPGGSLRLSCAASGFTFSTYAMNWVRQAPGKGLEWVGRIRSKYNNYATYYAASVKGRFTISRDDSKNTLYLQMNSLRTEDTAVYYCVRHGNFGHSYVSWFAYWGQGTLVTVSS
VL: QAVVTQEPSLTVSPGGTVTLTCRSSTGAVTTGHYANWVQQKPGQAPRGLIGGTNKRAPGVPARFSGSLLGGKAALTISGAQPEDEAEYYCALWYSNLWVFGGGTKLTVL
Consider B4, for which the IC50 was found to be 0.18 µg/mL in test [1], 0.43 µg/mL in test [2] and 0.31 µg/mL in test [3].

B5: huSP34.11.9 Fab-HF (Fab, V domains shown)
VH: EVQLVESGGGLVQPGGSLRLSCAASGFTFSTYAMNWVRQAPGKGLEWVGRIRSKYNNYATYYAASVKGRFTISRDDSKNSLYLQMNSLRTEDTAVYYCVRHGNFGHSYVSWFAYWGQGTLVTVSS
VL: QAVVTQPPSLTVSPGGTVTLTCGSSTGAVTTGHYANWVQQKPGQAPRGLIGGTNKRAPGVPARFSGSLSGGKAALTISGAQPEDEAEYYCALWYSNLWVFGGGTKLTVL
B5: the IC50 in test [1] turned out to be 0.22 µg/mL; in test [2], 0.57 µg/mL; in test [3], 0.4 µg/mL.

B6: huSP34.12.7 Fab-HF (Fab, V domains shown)
VH: EVQLVESGGGLVQPGGSLRLSCAASGFTFSTYAMNWVRQAPGKGLEWVARIRSKYNNYATYYAASVKGRFTISRDDSKNSLYLQMNSLRTEDTAVYYCVRHGNFGHSYVSWFAYWGQGTLVTVSS
VL: QAVVTQEPSLTVSPGGTVTLTCRSSTGAVTTGHYANWVQQKPGQAPRGLIGGTNKRAPGVPARFSGSLLGGKAALTISGAQPEDEAEYYCALWYSNLWVFGGGTKLTVL
For the molecule B6, the IC50 in test [1] came out at 0.39 µg/mL; in test [2], 0.77 µg/mL; in test [3], 0.58 µg/mL.

B7: huSP34.3.8 Fab-HF (Fab, V domains shown)
VH: EVQLVESGGGLVQPGGSLRLSCAASGFTFNTYAMNWVRQAPGKGLEWVGRIRSKYNNYATYYADSVKGRFTISRDDSKNSLYLQMNSLRTEDTAVYYCVRHGNFGHSYVSWFAYWGQGTLVTVSS
VL: QAVVTQEPSLTVSPGGTVTLTCGSSTGAVTTGHYANWVQQKPGQAPRGLIGGTNKRAPGVPARFSGSLLGGKAALTISGAQPEDEAEYYCALWYSNRWVFGGGTKLTVL
As to B7, the values for the IC50 in test [1], in test [2] and in test [3] were 0.1 µg/mL, 0.2 µg/mL and 0.15 µg/mL, respectively.

B8: huSP34.3.10 Fab-HF (Fab, V domains shown)
VH: EVQLVESGGGLVQPGGSLRLSCAASGFTFNTYAMNWVRQAPGKGLEWVGRIRSKYNNYATYYADSVKGRFTISRDDSKNSLYLQMNSLRTEDTAVYYCVRHGNFGHSYVSWFAYWGQGTLVTVSS
VL: QAVVTQPPSLTVSPGGTVTLTCGSSTGAVTTGHYANWVQQKPGQAPRGLIGGTNKRAPGVPARFSGSLSGGKAALTISGAQPEDEAEYYCALWYSNRWVFGGGTKLTVL
For the molecule B8, the IC50 in test [1] was found to be 0.09 µg/mL; in test [2], 0.2 µg/mL; in test [3] it was 0.15 µg/mL.

B9: huSP34.12.9 Fab-HF (Fab, V domains shown)
VH: EVQLVESGGGLVQPGGSLRLSCAASGFTFSTYAMNWVRQAPGKGLEWVARIRSKYNNYATYYAASVKGRFTISRDDSKNSLYLQMNSLRTEDTAVYYCVRHGNFGHSYVSWFAYWGQGTLVTVSS
VL: QAVVTQPPSLTVSPGGTVTLTCGSSTGAVTTGHYANWVQQKPGQAPRGLIGGTNKRAPGVPARFSGSLSGGKAALTISGAQPEDEAEYYCALWYSNLWVFGGGTKLTVL
Regarding B9, the IC50 in test [1] worked out at 0.49 µg/mL; in test [2] it was 0.97 µg/mL; in test [3], 0.73 µg/mL.

B10: huSP34.3.9 Fab-HF (Fab, V domains shown)
VH: EVQLVESGGGLVQPGGSLRLSCAASGFTFNTYAMNWVRQAPGKGLEWVGRIRSKYNNYATYYADSVKGRFTISRDDSKNSLYLQMNSLRTEDTAVYYCVRHGNFGHSYVSWFAYWGQGTLVTVSS
VL: QAVVTQPPSLTVSPGGTVTLTCGSSTGAVTTGHYANWVQQKPGQAPRGLIGGTNKRAPGVPARFSGSLSGGKAALTISGAQPEDEAEYYCALWYSNLWVFGGGTKLTVL
Consider B10, for which the IC50 in test [1] was 0.17 µg/mL; in test [2] it was 0.39 µg/mL; in test [3], 0.28 µg/mL.

B11: huSP34.11.8 Fab-HF (Fab, V domains shown)
VH: EVQLVESGGGLVQPGGSLRLSCAASGFTFSTYAMNWVRQAPGKGLEWVGRIRSKYNNYATYYAASVKGRFTISRDDSKNSLYLQMNSLRTEDTAVYYCVRHGNFGHSYVSWFAYWGQGTLVTVSS
VL: QAVVTQEPSLTVSPGGTVTLTCGSSTGAVTTGHYANWVQQKPGQAPRGLIGGTNKRAPGVPARFSGSLLGGKAALTISGAQPEDEAEYYCALWYSNRWVFGGGTKLTVL
With B11, the IC50 in test [1] was determined as 0.13 µg/mL; in test [2] it was 0.3 µg/mL; in test [3] it was 0.22 µg/mL.

B12: huSP34.12.10 Fab-HF (Fab, V domains shown)
VH: EVQLVESGGGLVQPGGSLRLSCAASGFTFSTYAMNWVRQAPGKGLEWVARIRSKYNNYATYYAASVKGRFTISRDDSKNSLYLQMNSLRTEDTAVYYCVRHGNFGHSYVSWFAYWGQGTLVTVSS
VL: QAVVTQPPSLTVSPGGTVTLTCGSSTGAVTTGHYANWVQQKPGQAPRGLIGGTNKRAPGVPARFSGSLSGGKAALTISGAQPEDEAEYYCALWYSNRWVFGGGTKLTVL
As to B12, the IC50 in test [1] was 0.33 µg/mL; in test [2], 0.69 µg/mL; in test [3] it was 0.51 µg/mL.

B13: huSP34.11.10 Fab-HF (Fab, V domains shown)
VH: EVQLVESGGGLVQPGGSLRLSCAASGFTFSTYAMNWVRQAPGKGLEWVGRIRSKYNNYATYYAASVKGRFTISRDDSKNSLYLQMNSLRTEDTAVYYCVRHGNFGHSYVSWFAYWGQGTLVTVSS
VL: QAVVTQPPSLTVSPGGTVTLTCGSSTGAVTTGHYANWVQQKPGQAPRGLIGGTNKRAPGVPARFSGSLSGGKAALTISGAQPEDEAEYYCALWYSNRWVFGGGTKLTVL
For the molecule B13, the IC50 in test [1] was 0.15 µg/mL; in test [2], 0.35 µg/mL; in test [3] it was 0.25 µg/mL.
